Key:
Assay in all cases: cell-based or functional assay
[1] = biological target: T1, human CD19 on cells (CD20+ gated blood B cells; Raji/GF, HBL-2, Jeko-1 cells; CLL B cells) (human, UniProt P15391 20-556)
T1 sequence (looked up): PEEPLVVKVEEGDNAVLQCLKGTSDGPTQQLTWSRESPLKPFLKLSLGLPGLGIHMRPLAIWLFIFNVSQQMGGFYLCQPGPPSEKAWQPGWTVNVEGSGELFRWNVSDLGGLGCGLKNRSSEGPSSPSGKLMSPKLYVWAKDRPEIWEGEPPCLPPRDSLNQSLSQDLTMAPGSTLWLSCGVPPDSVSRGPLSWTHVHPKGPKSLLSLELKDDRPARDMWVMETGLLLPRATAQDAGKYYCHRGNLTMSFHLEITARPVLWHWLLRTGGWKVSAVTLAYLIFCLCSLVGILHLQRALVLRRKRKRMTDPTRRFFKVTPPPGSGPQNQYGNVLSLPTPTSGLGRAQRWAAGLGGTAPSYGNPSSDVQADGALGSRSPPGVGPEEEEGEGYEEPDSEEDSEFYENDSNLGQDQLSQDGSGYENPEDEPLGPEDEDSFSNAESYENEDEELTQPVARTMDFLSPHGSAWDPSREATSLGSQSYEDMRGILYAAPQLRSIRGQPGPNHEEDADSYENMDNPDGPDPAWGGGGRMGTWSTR

[2] = biological target: T1, human CD19 on cells (CD20+ gated blood …); remark: listed apart in the source
[3] = biological target: T1, human CD19 on cells (CD20+ gated blood …); remark: listed apart in the source
[4] = biological target: T1, human CD19 on cells (CD20+ gated blood …); remark: listed apart in the source
[5] = biological target: T2, cynomolgus monkey CD19 on CD20+ gated blood B cells (cynomolgus monkey, UniProt A0A2K5W8L9 20-557)
T2 sequence: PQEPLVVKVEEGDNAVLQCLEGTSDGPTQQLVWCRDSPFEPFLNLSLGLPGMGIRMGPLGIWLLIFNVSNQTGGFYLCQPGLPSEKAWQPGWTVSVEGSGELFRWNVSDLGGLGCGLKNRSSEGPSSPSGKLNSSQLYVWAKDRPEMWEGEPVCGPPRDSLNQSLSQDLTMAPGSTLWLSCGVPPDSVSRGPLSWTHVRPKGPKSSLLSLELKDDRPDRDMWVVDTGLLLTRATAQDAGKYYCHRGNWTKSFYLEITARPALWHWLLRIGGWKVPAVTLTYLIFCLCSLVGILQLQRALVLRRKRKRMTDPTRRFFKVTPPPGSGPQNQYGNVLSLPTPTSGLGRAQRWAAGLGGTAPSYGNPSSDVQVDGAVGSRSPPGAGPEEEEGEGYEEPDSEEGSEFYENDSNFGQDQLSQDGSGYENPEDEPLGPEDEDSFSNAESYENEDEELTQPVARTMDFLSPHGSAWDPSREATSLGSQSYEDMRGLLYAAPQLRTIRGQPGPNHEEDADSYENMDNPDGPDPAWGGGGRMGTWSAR

[6] = biological target: T1, human CD19 on cells (CD20+ gated blood …); remark: listed apart in the source
[7] = biological target: T1, human CD19 on cells (CD20+ gated blood …); remark: listed apart in the source

B1: DART-A (CD19×CD3 bi-specific monovalent Fc diabody) (bispecific antibody)
chain 1: ENVLTQSPATLSVTPGEKATITCRASQSVSYMHWYQQKPGQAPRLLIYDASNRASGVPSRFSGSGSGTDHTLTISSLEAEDAATYYCFQGSVYPFTFGQGTKLEIKGGGSGGGGEVQLVESGGGLVQPGGSLRLSCAASGFTFSTYAMNWVRQAPGKGLEWVGRIRSKYNNYATYYADSVKGRFTISRDDSKNSLYLQMNSLKTEDTAVYYCVRHGNFGNSYVSWFAYWGQGTLVTVSSASTKGEVAACEKEVAALEKEVAALEKEVAALEKGGGDKTHTCPPCPAPEAAGGPSVFLFPPKPKDTLMISRTPEVTCVVVDVSHEDPEVKFNWYVDGVEVHNAKTKPREEQYNSTYRVVSVLTVLHQDWLNGKEYKCKVSNKALPAPIEKTISKAKGQPREPQVYTLPPSREEMTKNQVSLWCLVKGFYPSDIAVEWESNGQPENNYKTTPPVLDSDGSFFLYSKLTVDKSRWQQGNVFSCSVMHEALHNHYTQKSLSLSPGK
chain 2: QAVVTQEPSLTVSPGGTVTLTCRSSTGAVTTSNYANWVQQKPGQAPRGLIGGTNKRAPWTPARFSGSLLGGKAALTITGAQAEDEADYYCALWYSNLWVFGGGTKLTVLGGGGSGGGGQVTLRESGPALVKPTQTLTLTCTFSGFSLSTSGMGVGWIRQPPGKALEWLAHIWWDDDKRYNPALKSRLTISKDTSKNQVFLTMTNMDPVDTATYYCARMELWSYYFDYWGQGTTVTVSSASTKGKVAACKEKVAALKEKVAALKEKVAALKE
chain 3: not shown
- mean EC50, IFN-γ release, human T cells with Raji/GF cells (n = 2) [1]: 5.51 pM
- mean EC50, IL-2 release, human T cells with Raji/GF cells (n = 2) [1]: 6.32 pM
- mean EC50, TNF-α release, human T cells with Raji/GF cells (n = 2) [1]: 3.71 pM
- mean EC50, cytotoxicity, HBL-2 (n = 5), CTL assay [1]: 0.11 pM
- mean EC50, cytotoxicity, Jeko-1 (n = 3), CTL assay [1]: 0.15 pM
- mean EC50, cytotoxicity, Raji/GF (n = 5), CTL assay [1]: 0.31 pM
- EC50, redirected killing of Raji/GF cells, 24 hours, E:T = 5:1 [2]: 0.67 pM
- EC50, redirected killing of Raji/GF cells, 24 hours, E:T = 10:1 [2]: 0.14 pM
- EC50, redirected killing of Raji/GF cells, 48 hours, E:T = 2.5:1 [2]: 1.08 pM
- EC50, redirected killing of Raji/GF cells, 48 hours, E:T = 5:1 [2]: 0.38 pM
- EC50, redirected killing of Raji/GF cells, 48 hours, E:T = 10:1 [2]: 0.0441 pM
- EC50, cytotoxicity against Raji/GF target cells with cynomolgus monkey PBMCs as effector cells (E:T = 30:1) [3]: 0.013 pM
- average EC50 of redirected killing of HBL-2 cells, human T cells, E:T 10:1 [3]: 0.105 pM
- average EC50 of redirected killing of Jeko-1 cells, human T cells, E:T 10:1 [3]: 0.146 pM
- average EC50 of redirected killing of Raji/GF cells, human T cells, E:T 10:1 [3]: 0.307 pM
- EC50, autologous B cell depletion in human PBMCs, Human 5 (E:T = 8:1) [4]: 6.27 pM
- EC50, autologous B cell depletion in human PBMCs, Human 6 (E:T = 8:1) [4]: 2.75 pM
- EC50, autologous B cell depletion in human PBMCs, Human 7 (E:T = 5:1) [4]: 5.52 pM
- EC50, autologous B cell depletion in human PBMCs, Human 8 (E:T = 9:1) [4]: 1.84 pM
- mean EC50, autologous B cell depletion in human PBMCs [4]: 4.2 pM
- EC50, autologous B cell depletion in cynomolgus monkey PBMCs, Cyno 5 (E:T = 3:1) [5]: 166 pM
- EC50, autologous B cell depletion in cynomolgus monkey PBMCs, Cyno 6 (E:T = 2:1) [5]: 859 pM
- EC50, autologous B cell depletion in cynomolgus monkey PBMCs, Cyno 7 (E:T = 3:1) [5]: 107 pM
- EC50, autologous B cell depletion in cynomolgus monkey PBMCs, Cyno 8 (E:T = 7:1) [5]: 239 pM
- mean EC50, autologous B cell depletion in cynomolgus monkey PBMCs [5]: 343 pM
- EC50, redirected killing of Raji/GF cells, 72 hours, E:T = 1:1 [6]: 2.79 pM
- EC50, redirected killing of Raji/GF cells, 72 hours, E:T = 2.5:1 [6]: 1.54 pM
- EC50, redirected killing of Raji/GF cells, 96 hours, E:T = 1:1 [6]: 0.44 pM
- EC50, redirected killing of Raji/GF cells, 96 hours, E:T = 2.5:1 [6]: 0.422 pM
- EC50, IFN-γ production, human T cells with Raji/GF cells, donor D44284, E:T = 10:1 [7]: 2.44 pM
- EC50, IFN-γ production, human T cells with Raji/GF cells, donor D47067, E:T = 10:1 [7]: 8.58 pM
- EC50, IL-2 production, human T cells with Raji/GF cells, donor D44284, E:T = 10:1 [7]: 1.33 pM
- EC50, IL-2 production, human T cells with Raji/GF cells, donor D47067, E:T = 10:1 [7]: 11.3 pM
- EC50, TNF-α production, human T cells with Raji/GF cells, donor D44284, E:T = 10:1 [7]: 0.626 pM
- EC50, TNF-α production, human T cells with Raji/GF cells, donor D47067, E:T = 10:1 [7]: 6.79 pM
